Reference: the supplement of paper PMC9170038

Tested on: MS2 coat protein
Assay: apparent KD of MS2 coat protein; designed switch direction (-1 OFF switch, 1 ON switch): -1; higher = weaker reporter binding
How it was run: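 SNAP-549-labelled MS2 coat protein was titrated, doubling from 0.7 or 1.5 nM to 3 µM, over designed RNA switches transcribed on Illumina chips by stalled E. coli RNA polymerase. Runs were done without input, with 200 uM small-molecule ligand, or with an oligonucleotide input. Apparent KD is the per-design median over clusters of curve-fitted normalised fluorescence.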

[1] = input ligand: microRNA oligo, concentration not stated
[2] = Eterna round: R95, input ligand: microRNA oligo, concentration not stated
[3] = Eterna round: R95, input ligand: FMN 200 uM
[4] = Eterna round: R95, input ligand: none

Sequence	apparent KD of MS2 coat protein (input ligand: FMN 200 uM)	apparent KD of MS2 coat protein (input ligand: none)	apparent KD of MS2 coat protein [1]	also measured
AUAUUAGCAGGAUAUAUCCGGGAUAACAUGAGGAUCACCCAUGUGACCGCUUGAUAUCCUAUAGAAGGGCUUUAUA [Mod of ViennaUCT 29 - Jieux - Exclusion 5] (Eterna round: R97, puzzle: Exclusion 5)	35.3 nM	20.6 nM		
AUAUUGUGAGGAUAUGAACUUAGUAUCGAAAGAUACUAAGUACAGAAGGCACAUGAGGAUCACCCAUGUUUCUC [Long static hairpin v2] (Eterna round: R97, puzzle: Exclusion 4)	418 nM	85.7 nM		
AUCAGCUCGUGAGGAUAUACAUGCGUGCUUCGGCACGUAUGAUAGAUCACAUGAGGAUCACCCAUGUAGAAGGCACGAGCUGAU [ENG2/4-A3] (Eterna round: R96, puzzle: Exclusion NG 2)	15.1 nM	13.4 nM	12.1 nM	
AUCAGCUCGUGAGGAUAUAUUAACAUGAGGAUCACCCAUGUAAGAUCAGGCUUCGGCCAAUGUUAAUAGAAGGCACGAGCUGAU [ENG2/12-A2] (Eterna round: R96, puzzle: Exclusion NG 2)	239 nM	170 nM	56.3 nM	
AUCAGUCGAGGAUAUACGAUCGUGCUUCGGCACGUAAGAUCACAUGAGGAUCACCCAUGUAGAAGGCGACUGAU [Mod 8 - Jieux - Exclusion 2] (Eterna round: R97, puzzle: Exclusion 2)	463 nM	30.4 nM		
AUCAUGUAAGGAUAUCUUACAUGUGACUUCGGUCACUGUUCAGAGAAGGUACAUGAGGAUCACCCAUGUAGAAC [Ex4-3: 45] (puzzle: Exclusion 4)				apparent KD of MS2 coat protein [2]: 18.5 nM
AUCCUACAUGAGGAUCACCCAUGUCAGGAUAUCCAAGAAAUCUGGCCGUAUCGGCCAGGGAGAAGGGACAUGGC [jl-ex1-4.66 ViennaUCT mod] (Eterna round: R97, puzzle: Exclusion 1)	85.6 nM	28.4 nM		
AUCCUGCGAGGAUAUACAUAAUUUUUUUCGUUUUGACUCGAACAUGAGGAUCACCCAUGUAGAAGGUGCUUCAC [JR_Ex2_Sub027] (Eterna round: R97, puzzle: Exclusion 2)	122 nM	94.8 nM		
AUCGUGCAGCUUUGCUGUACGAGUACAUGAGGAUCACCCAUGUAGGAUAUGGUACGCAAAGCGUGCUAGAAGGAUAUGAGAUUA [Mat - Exclusion NG 3 - Mod of JL - D96] (Eterna round: R96, puzzle: Exclusion NG 3)	24.2 nM	28.8 nM	21.5 nM	
AUCGUGUCAGGAUAUUGAAGUUCCGGGCAGUCCACGGAGCUCGAGAAGGGACAUGAGGAUCACCCAUGUCUCAU [Eternabot (L1) Solution 84] (Eterna round: R97, puzzle: Exclusion 4)	21.4 nM	18.6 nM		
AUCUUGUCAGGAUAUCUGACAAGUGACGAAAGUCACAGUUCAGAGAAGGUACAUGAGGAUCACCCAUGUAGAAC [Ex4-3: 40] (puzzle: Exclusion 4)				apparent KD of MS2 coat protein [2]: 19.1 nM
AUGAGCAGACGGAGAUCCAACAUGAGGAUCACCCAUGUCUCAUAAGCUUUUUGUUCAUCUUAUUGUACCUUGGUGCU [Mat - Sensor v3 - turn-off var 1 - JL Mod - D22] (puzzle: Sensor v3, turn-off variant 1)				apparent KD of MS2 coat protein [3]: 53.7 nM; apparent KD of MS2 coat protein [2]: 12.6 nM; apparent KD of MS2 coat protein [4]: 67.7 nM
AUGCGACAUGAGGAUCACCCAUGUGAGGAUAUUCGAAUGCACAAUUCGGUGUGAUAGAGGAGAAGGCGCAGGUA [EX1 #19] (Eterna round: R97, puzzle: Exclusion 1)	154 nM	243 nM		
AUGGGUCCUCUCGGAGCGACAUGAGGAUCACCCAUGUGUGUUGAGGAUAUCCACUGCUAAGGACGGGAGAAGGCAGUGUACUGU [Ex NG3 #85] (Eterna round: R96, puzzle: Exclusion NG 3)	29.8 nM	32.9 nM	23.5 nM	
AUGGUACAUGAGGAUCACCCAUGUUAGGAUAUCGCGUGAGGUAAAACUUACACACACACGAGAAGGGACGACAU (puzzle: Exclusion 1)				apparent KD of MS2 coat protein [2]: 55.1 nM
AUGUAACAUGAGGAUCACCCAUGUGAGGAUAUGCGAAUGAAUGAAUGAAUGAAUGUUAGCAGAAGGCACAAGUA [Default title] (Eterna round: R97, puzzle: Exclusion 1)	59.6 nM	44.3 nM		

Sequence	apparent KD of MS2 coat protein (input ligand: FMN 200 uM)	apparent KD of MS2 coat protein (input ligand: none)	apparent KD of MS2 coat protein [1]	also measured
AUGUAGUAAGGAUAUAGAAAGAAGGAGUAAGAUAGAGAGUUCUAGAAGGUACAUGAGGAUCACCCAUGUUGGAG [JR_Exclu4_Sub081] (puzzle: Exclusion 4)				apparent KD of MS2 coat protein [2]: 22.2 nM
AUGUGGGUACGAAGGUGUAGAUUGAGCGUACGUUCUGGAACAUGAGGAUCACCCAUGUCGCUUUUUGCUCGUCUUAU [JR_SV3TOV2_Sub035] (puzzle: Sensor v3, turn-off variant 2)				apparent KD of MS2 coat protein [3]: 25.1 nM; apparent KD of MS2 coat protein [2]: 47.8 nM; apparent KD of MS2 coat protein [4]: 24.1 nM
AUGUUACAUGAGGAUCACCCAUGUGAGGAUAUGAGUCAGUCACGGUGACGUGGCUGACUCAGAAGGCACAAAGG [JL-ex1-4.38 salish99 mod] (Eterna round: R97, puzzle: Exclusion 1)	754 nM	180 nM		
AUGUUACUCUGAGGAUAUUGUUUAUUCUUCUCACAUGAGGAUCACCCAUGUUUCCAUGUUAACCGCAAGAAGGCAGUAUUGAUU [JR_ExcNG2_Sub030] (Eterna round: R96, puzzle: Exclusion NG 2)	76.1 nM	55.1 nM	49.1 nM	
AUUAAACAUGUAGGAUAUGCGUGGCGAAGCUAUGCAGAAGGACAUGAGGAUCACCCAUGUAAGAGCGUCUGCGUACAGAUGCAA [Mat - Exclusion NG 1 - Mod of JL - D85] (Eterna round: R96, puzzle: Exclusion NG 1)	563 nM	61.5 nM	36.6 nM	
AUUAAAGACCGAGGAUAUCGAGGAAAUACCCUGCGAGAAGGCGGGUACUCGGACGAUUCGACAUGAGGAUCACCCAUGUGCACA [Atrivece] (Eterna round: R96, puzzle: Exclusion NG 1)	26.6 nM	25.9 nM	24.5 nM	
AUUAGCGUAGGAUAUUGAUACAUGUACAUGAGGAUCACCCAUGUGAGGUGAGUCUUCGAUUAAGAAGGGCGCAGAA [EX5 #39] (Eterna round: R97, puzzle: Exclusion 5)	82.6 nM	1210 nM		
AUUAUAAAGUCAGGAUAUCGGUUUAUAAUAUUACGAGAAGGGACAUGAGGAUCACCCAUGUAUUAACACUACUAUGUCAACUAA [1st Attempt] (Eterna round: R96, puzzle: Exclusion NG 1)			33.3 nM	
AUUAUAAAUGUAGGAUAUCUGCACGUUUAGUGCAGAGAAGGACAUGAGGAUCACCCAUGUAGAUCAAUAAUAAUUAAUUUAAUU [ENG1/5-B2] (Eterna round: R96, puzzle: Exclusion NG 1)	146 nM	33.7 nM	29.1 nM	
AUUAUAACAUAGGAUAUCGAAUUUAUCAUUUAACGAGAAGGAUGAACAUGAGGAUCACCCAUGUGGUAUCAUGG [Mat - Exclusion 6 - JL Mod - D3] (puzzle: Exclusion 6)				apparent KD of MS2 coat protein [3]: 55 nM; apparent KD of MS2 coat protein [2]: 173 nM; apparent KD of MS2 coat protein [4]: 33.5 nM
AUUAUAUAGAUAGGAUAUUGAUUAUUAUUUUAACAUGAGGAUCACCCAUGUAGCCUUAUGUAUAACAAGAAGGAUCAUUUAUUA [Title] (Eterna round: R96, puzzle: Exclusion NG 2)			137 nM	
AUUAUAUAGGAAGGAUAUAGAAUAUUAUUUUAACAUGAGGAUCACCCAUGUAACCUUAUGUGUAGCUAGAAGGUCCAUUUGUUA [Title] (Eterna round: R96, puzzle: Exclusion NG 2)			221 nM	
AUUAUUUAAGUCAGGAUAUCGUAUUUAUUUAAAUACGAGAAGGGACAUGAGGAUCACCCAUGUAAUAAAUUUUU [JMFs Solution 3] (puzzle: Brourd's mod of Exclusion 4)				apparent KD of MS2 coat protein [2]: 17.2 nM
AUUCAACAUGAGGAUCACCCAUGUGAGGAUAUGCGAGUGUAGACUUCGGUUUGAUAGAGCAGAAGGCGCAGGUA [EX1 #12] (Eterna round: R97, puzzle: Exclusion 1)	35.9 nM	33.3 nM		
AUUCAGCGAGGAUAUACAGGUUCUGGGUGAGGCUCGGCGAGACAUGAGGAUCACCCAUGUAGAAGGUGCUAGCC [Rezalaes] (puzzle: Exclusion 2)				apparent KD of MS2 coat protein [2]: 277 nM
AUUCUUCAUAUCACAUGAGGAUCACCCAUGUUAUUCAUCGCGUAGGAUAUCGAGAAUUUUAAAUACGAGAAGGACGAAUUGAUA [JR_ExcNG3_Sub071] (Eterna round: R96, puzzle: Exclusion NG 3)	35.1 nM	35.3 nM	31.8 nM	
